Self-aminoacylation data for 25 sequences are collected here from the supplement of paper PMC9233669.

Variants at the floor of the assay were thinned out.

One data set relates to biotinyl-Phe-oxazolone. The experiment in a line: self-aminoacylation, catalytic enhancement (BFO) (fold over background); higher = more active; k-Seq, kA / k0A0; sequences stand for … in GGGAAUGGAUCCACAUCUACGAAUUC…UUCACUGCAGACUUGACGAAGCUG
The method, boiled down:
(§1)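 The uncatalyzed rate is the low-activity peak of a bimodal Gaussian fit, and catalytic enhancement is median kA divided by it. The kA values came from pseudo-first-order fits, with 1000 bootstraps, of per-sequence fraction reacted measured by streptavidin capture, triplicate qPCR and Illumina sequencing. Mutagenized RNA pools with a 21-nt variable region (0.43 μM) were reacted with each biotinyl-aminoacyl-oxazolone at 2–1250 μM in 50 μL HEPES/NaCl/KCl/MgCl2/CaCl2 buffer with 5% acetonitrile, pH 6.9–7.0, for 90 minutes at room temperature.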

For the next data set, the system named is biotinyl-Ile-oxazolone. The experiment in a line: self-aminoacylation, catalytic enhancement (BIO) (fold over background); higher = more active; k-Seq, kA / k0A0; sequences stand for … in GGGAAUGGAUCCACAUCUACGAAUUC…UUCACUGCAGACUUGACGAAGCUG
The procedure, abridged:
as §1

The next data set concerns biotinyl-Met-oxazolone. The data set is described as follows: self-aminoacylation, catalytic enhancement (BMO) (fold over background); higher = more active; k-Seq, kA / k0A0; sequences stand for … in GGGAAUGGAUCCACAUCUACGAAUUC…UUCACUGCAGACUUGACGAAGCUG
The procedure, abridged:
as §1

A further data set deals with biotinyl-Val-oxazolone. The experiment in a line: self-aminoacylation, catalytic enhancement (BVO) (fold over background); higher = more active; k-Seq, kA / k0A0; sequences stand for … in GGGAAUGGAUCCACAUCUACGAAUUC…UUCACUGCAGACUUGACGAAGCUG
The method, boiled down: as §1

A further data set concerns biotinyl-Leu-oxazolone. The experiment in a line: self-aminoacylation, catalytic enhancement (BLO) (fold over background); higher = more active; k-Seq, kA / k0A0; sequences stand for … in GGGAAUGGAUCCACAUCUACGAAUUC…UUCACUGCAGACUUGACGAAGCUG
The procedure, abridged: as §1

A further data set concerns biotinyl-Trp-oxazolone. The data set is described as follows: self-aminoacylation, catalytic enhancement (BWO) (fold over background); higher = more active; k-Seq, kA / k0A0; sequences stand for … in GGGAAUGGAUCCACAUCUACGAAUUC…UUCACUGCAGACUUGACGAAGCUG
The procedure, abridged:
as §1

With “AUUCACCUACGACAUCGGGUG [Fam2.2 aminoacylation ribozyme variant]”, the self-aminoacylation in the data set with biotinyl-Phe-oxazolone stood at 24; with biotinyl-Ile-oxazolone, 2.48; with biotinyl-Met-oxazolone it was 3.87; in the data set with biotinyl-Val-oxazolone, 2.28; in the data set with biotinyl-Leu-oxazolone it was 5.12; with biotinyl-Trp-oxazolone it was 3.95.

Turning to “AUUACUCUGGUCAUCGAGUGA [Fam2.1 aminoacylation ribozyme variant]”, the self-aminoacylation worked out at 6.25 in the data set on biotinyl-Phe-oxazolone; 3.77 in the data set on biotinyl-Ile-oxazolone; 6.63 in the data set on biotinyl-Met-oxazolone; 3.78 with biotinyl-Val-oxazolone; 6.98 in the data set on biotinyl-Leu-oxazolone; 7.48 in the data set with biotinyl-Trp-oxazolone.

Consider “AUUCACCUAGGGCAUCGGGUG [Fam2.2 aminoacylation ribozyme variant]”, for which the self-aminoacylation in the data set with biotinyl-Phe-oxazolone was 20.3; with biotinyl-Ile-oxazolone, 2.78; in the data set with biotinyl-Met-oxazolone it was 3.55; in the data set on biotinyl-Val-oxazolone, 3; with biotinyl-Leu-oxazolone, 4.05; in the data set on biotinyl-Trp-oxazolone, 3.4.

As for “AAGGUUGCUAAUAGUCGCUAG [Fam3.1 aminoacylation ribozyme variant]”, the self-aminoacylation with biotinyl-Phe-oxazolone came to 1.54; with biotinyl-Ile-oxazolone, 1.3; in the data set with biotinyl-Met-oxazolone, 1.03; in the data set with biotinyl-Val-oxazolone it was 1.03; in the data set on biotinyl-Leu-oxazolone, 1.19; in the data set on biotinyl-Trp-oxazolone, 1.27.

As to “UUUCACCUAGUUCAUCGGGUG [Fam2.2 aminoacylation ribozyme variant]”, the self-aminoacylation was determined as 18.6 in the data set on biotinyl-Phe-oxazolone; 2.44 with biotinyl-Ile-oxazolone; 2.6 in the data set on biotinyl-Met-oxazolone; 3.09 in the data set with biotinyl-Val-oxazolone; 2.99 with biotinyl-Leu-oxazolone; 3.92 with biotinyl-Trp-oxazolone.

Regarding “CCACACUUCAAGCACUUGGUC [Fam1B.1 aminoacylation ribozyme variant]”, the self-aminoacylation in the data set on biotinyl-Phe-oxazolone was 1.03; with biotinyl-Ile-oxazolone, 0.816; in the data set with biotinyl-Met-oxazolone, 0.775; in the data set on biotinyl-Val-oxazolone, 0.65; in the data set on biotinyl-Leu-oxazolone, 0.818; in the data set on biotinyl-Trp-oxazolone it was 0.616.

Regarding “AAUUUUGCUUAUAGUCGCAAG [Fam3.1 aminoacylation ribozyme variant]”, the self-aminoacylation with biotinyl-Phe-oxazolone stood at 3.02; in the data set on biotinyl-Ile-oxazolone, 2.39; in the data set with biotinyl-Met-oxazolone, 2.17; in the data set with biotinyl-Val-oxazolone, 2.14; in the data set with biotinyl-Leu-oxazolone, 2.29; in the data set on biotinyl-Trp-oxazolone, 2.28.

In the case of “AAUUUUUCUAAUAGUCGCAAG [Fam3.1 aminoacylation ribozyme variant]”, the self-aminoacylation came to 3.68 in the data set with biotinyl-Phe-oxazolone; 1.88 with biotinyl-Ile-oxazolone; 1.7 in the data set on biotinyl-Met-oxazolone; 1.75 in the data set on biotinyl-Val-oxazolone; 1.75 with biotinyl-Leu-oxazolone; 1.54 in the data set on biotinyl-Trp-oxazolone.

As for “UUUAACCUAGGUCAUCGGGUG [Fam2.2 aminoacylation ribozyme variant]”, the self-aminoacylation in the data set on biotinyl-Phe-oxazolone came out at 36.3; in the data set on biotinyl-Ile-oxazolone, 5.19; in the data set with biotinyl-Met-oxazolone, 5.87; in the data set on biotinyl-Val-oxazolone it was 4.48; in the data set on biotinyl-Leu-oxazolone, 7.42; in the data set with biotinyl-Trp-oxazolone, 7.19.

For the sequence “AUUACCCCGGUCAACGAGUGA [Fam2.1 aminoacylation ribozyme variant]”, the self-aminoacylation in the data set on biotinyl-Phe-oxazolone stood at 28.2; in the data set on biotinyl-Ile-oxazolone it was 3.08; in the data set on biotinyl-Met-oxazolone, 5.86; in the data set on biotinyl-Val-oxazolone, 3.47; with biotinyl-Leu-oxazolone, 4.74; in the data set on biotinyl-Trp-oxazolone it was 6.44.

With “AUACACCCAGGUCAUCGGGUG [Fam2.2 aminoacylation ribozyme variant]”, the self-aminoacylation in the data set on biotinyl-Phe-oxazolone is 32.7; in the data set with biotinyl-Ile-oxazolone it was 3.78; with biotinyl-Met-oxazolone, 5.29; in the data set on biotinyl-Val-oxazolone it was 3.3; in the data set on biotinyl-Leu-oxazolone, 4.64; in the data set with biotinyl-Trp-oxazolone, 5.99.

On to “AUUUCCCUGGUCAUCGGGUGA [Fam2.1 aminoacylation ribozyme variant]”, for which the self-aminoacylation in the data set on biotinyl-Phe-oxazolone came to 90.8; with biotinyl-Ile-oxazolone it was 10.1; in the data set with biotinyl-Met-oxazolone it was 18.5; in the data set with biotinyl-Val-oxazolone it was 11.6; with biotinyl-Leu-oxazolone, 21.5; in the data set with biotinyl-Trp-oxazolone, 23.9.

On to “CCACACUUCAAGCAACCCGUC [Fam1B.1 aminoacylation ribozyme variant]”, for which the self-aminoacylation was 0.819 in the data set with biotinyl-Phe-oxazolone; 1.14 with biotinyl-Ile-oxazolone; 0.779 in the data set on biotinyl-Met-oxazolone; 1.17 in the data set on biotinyl-Val-oxazolone; 0.763 with biotinyl-Leu-oxazolone; 0.843 in the data set with biotinyl-Trp-oxazolone.

For the sequence “CCACUCUGCAAGCAAUCGGUC [Fam1B.1 aminoacylation ribozyme variant]”, the self-aminoacylation in the data set on biotinyl-Phe-oxazolone is 1.11; in the data set with biotinyl-Ile-oxazolone it was 1.24; in the data set on biotinyl-Met-oxazolone it was 1.06; in the data set with biotinyl-Val-oxazolone, 1.41; in the data set on biotinyl-Leu-oxazolone, 1; with biotinyl-Trp-oxazolone it was 1.09.

With “CCACAUUUCAAGCAUUCGGUC [Fam1B.1 aminoacylation ribozyme variant]”, the self-aminoacylation with biotinyl-Phe-oxazolone came to 1.3; in the data set with biotinyl-Ile-oxazolone, 1.92; in the data set with biotinyl-Met-oxazolone it was 1.65; in the data set with biotinyl-Val-oxazolone, 1.96; in the data set with biotinyl-Leu-oxazolone, 1.64; in the data set with biotinyl-Trp-oxazolone, 1.56.

Consider “AUUACCCUGUUCAUAGAGUGA [Fam2.1 aminoacylation ribozyme variant]”, for which the self-aminoacylation with biotinyl-Phe-oxazolone was found to be 110; with biotinyl-Ile-oxazolone, 6.48; in the data set with biotinyl-Met-oxazolone, 15.6; in the data set on biotinyl-Val-oxazolone, 6.44; in the data set on biotinyl-Leu-oxazolone it was 14.6; in the data set on biotinyl-Trp-oxazolone, 18.

In the case of “AUUAACCUGGUCAUCGUGUGA [Fam2.1 aminoacylation ribozyme variant]”, the self-aminoacylation was determined as 13.1 in the data set on biotinyl-Phe-oxazolone; 1.69 in the data set on biotinyl-Ile-oxazolone; 3.13 in the data set on biotinyl-Met-oxazolone; 1.82 in the data set on biotinyl-Val-oxazolone; 3.13 in the data set with biotinyl-Leu-oxazolone; 3.69 with biotinyl-Trp-oxazolone.

For “UUACUUCAAACAAUCGGUCCG [Fam1A.1 aminoacylation ribozyme variant]”, the self-aminoacylation in the data set on biotinyl-Phe-oxazolone amounted to 1.69; in the data set on biotinyl-Ile-oxazolone it was 0.82; in the data set with biotinyl-Met-oxazolone, 0.942; with biotinyl-Val-oxazolone, 0.891; with biotinyl-Leu-oxazolone it was 0.937; in the data set on biotinyl-Trp-oxazolone it was 1.64.

Regarding “AUUCGCGUAGGUCAUCGGGUG [Fam2.2 aminoacylation ribozyme variant]”, the self-aminoacylation in the data set on biotinyl-Phe-oxazolone was 57.5; in the data set on biotinyl-Ile-oxazolone, 5.25; in the data set on biotinyl-Met-oxazolone, 8.32; in the data set with biotinyl-Val-oxazolone, 4.87; with biotinyl-Leu-oxazolone, 8.56; in the data set on biotinyl-Trp-oxazolone, 7.24.

“AUUGCCCUGGUCAUCGAGUAA [Fam2.1 aminoacylation ribozyme variant]”: the self-aminoacylation stood at 28.4 in the data set on biotinyl-Phe-oxazolone; 3.56 in the data set with biotinyl-Ile-oxazolone; 8.54 with biotinyl-Met-oxazolone; 4.02 with biotinyl-Val-oxazolone; 8.75 in the data set with biotinyl-Leu-oxazolone; 8.07 in the data set with biotinyl-Trp-oxazolone.

For the sequence “AUUCAGCUAGGACAUCGGGUG [Fam2.2 aminoacylation ribozyme variant]”, the self-aminoacylation in the data set with biotinyl-Phe-oxazolone was 42.1; in the data set on biotinyl-Ile-oxazolone, 3.53; in the data set with biotinyl-Met-oxazolone, 4.65; with biotinyl-Val-oxazolone it was 3.53; with biotinyl-Leu-oxazolone, 5.98; in the data set with biotinyl-Trp-oxazolone, 4.43.

In the case of “GUUACCCUGAUCAUCGAGUGA [Fam2.1 aminoacylation ribozyme variant]”, the self-aminoacylation in the data set on biotinyl-Phe-oxazolone is 32.3; with biotinyl-Ile-oxazolone it was 3.61; with biotinyl-Met-oxazolone it was 8.85; with biotinyl-Val-oxazolone it was 4.23; in the data set on biotinyl-Leu-oxazolone, 9.43; in the data set on biotinyl-Trp-oxazolone, 11.1.

With “AGGUUUGCUGAUAGUCGCAAG [Fam3.1 aminoacylation ribozyme variant]”, the self-aminoacylation in the data set on biotinyl-Phe-oxazolone came to 2.52; with biotinyl-Ile-oxazolone, 1.49; in the data set with biotinyl-Met-oxazolone, 1.53; with biotinyl-Val-oxazolone it was 1.2; with biotinyl-Leu-oxazolone, 1.83; with biotinyl-Trp-oxazolone, 1.83.

For the sequence “AUUACCCUGGUCAUCGAGGAA [Fam2.1 aminoacylation ribozyme variant]”, the self-aminoacylation in the data set with biotinyl-Phe-oxazolone came out at 8.38; in the data set with biotinyl-Ile-oxazolone it was 2.3; with biotinyl-Met-oxazolone, 5.91; with biotinyl-Val-oxazolone it was 2.44; with biotinyl-Leu-oxazolone it was 5.25; in the data set with biotinyl-Trp-oxazolone, 4.88.

With “CUUCUUCAAACCAUCGGUCUG [Fam1A.1 aminoacylation ribozyme variant]”, the self-aminoacylation worked out at 0.739 in the data set with biotinyl-Phe-oxazolone; 0.856 in the data set on biotinyl-Ile-oxazolone; 0.682 in the data set on biotinyl-Met-oxazolone; 0.775 in the data set with biotinyl-Val-oxazolone; 0.722 in the data set with biotinyl-Leu-oxazolone; 0.509 in the data set with biotinyl-Trp-oxazolone.
